Experimental data taken from article PMC3843637.

Molecular target: MAN1 fragment from amino acids 658 to 911 (MAN1C) (human) (UniProt Q9Y2U8)
Experiment: SEC + NMR titration

Sequence of MAN1 fragment from amino acids 658 to 911 (MAN1C) (human) (Q9Y2U8 658-911): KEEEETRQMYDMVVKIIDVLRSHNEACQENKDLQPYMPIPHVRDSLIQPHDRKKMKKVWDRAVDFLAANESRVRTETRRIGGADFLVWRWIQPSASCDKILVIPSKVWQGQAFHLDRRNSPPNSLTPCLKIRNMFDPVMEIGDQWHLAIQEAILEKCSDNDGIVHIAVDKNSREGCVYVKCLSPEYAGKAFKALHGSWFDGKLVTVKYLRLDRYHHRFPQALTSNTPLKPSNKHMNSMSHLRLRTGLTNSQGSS

For “PPM1A (from UniProt P35813 1-382) (enzyme)”, which Kd is on record?
Its Kd is 10 to 500 µM.
